One block for each substance: values may come before it.
What was measured:
[1] = molecular target: purified recombinant galectin-3 (gal3) (UniProt P17931); assay: solid phase assay, inhibition of gal3 binding to asialofetuin
[2] = molecular target: gal3 on the surface of B16 melanoma cells (murine) (UniProt P16110); assay: flow cytometry on B16 melanoma cells (unstained cells 214), control
[3] = molecular target: gal3 on the surface of human PC3 and HUVEC cells (human) (UniProt P17931); assay: flow cytometry on HUVEC cells (unstained cells 97), control
Chain of gal3 on the surface of human PC3 and HUVEC cells (human) (P17931 2-250): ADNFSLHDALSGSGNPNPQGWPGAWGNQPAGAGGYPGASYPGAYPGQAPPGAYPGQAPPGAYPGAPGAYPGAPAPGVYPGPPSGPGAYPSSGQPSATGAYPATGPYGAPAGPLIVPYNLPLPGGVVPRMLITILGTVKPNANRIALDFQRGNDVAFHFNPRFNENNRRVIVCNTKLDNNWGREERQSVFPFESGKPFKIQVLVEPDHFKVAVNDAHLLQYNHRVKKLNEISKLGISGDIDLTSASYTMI

[4] = molecular target: gal3 on the surface of human PC3 and HUVEC cells (human) (UniProt P17931); assay: flow cytometry on PC3 cells (unstained cells 205), control
[5] = molecular target: N-terminal of gal9 (gal9N); assay: solid phase assay, inhibition of gal9N binding to plate-bound asialofetuin (competitor), anti-galectin antibody detection
[6] = molecular target: purified recombinant galectin-3 (gal3) (UniProt P17931); assay: solid phase assay, inhibition of gal3 binding to plate-bound asialofetuin (competitor)
[7] = molecular target: N-terminal of gal9 (gal9N); assay: solid phase assay, inhibition of gal9N binding to asialofetuin
[8] = molecular target: purified recombinant galectin-3 (gal3) (UniProt P17931); assay: SPR (Biacore T200), derived from the dissociation rate
[9] = molecular target: purified recombinant galectin-3 (gal3) (UniProt P17931); assay: SPR (Biacore T200), biotinylated gal3 captured on SA chip, TFD100 0.312-10 nM, 1:1 binding model
[10] = molecular target: gal3 on the surface of human PC3 and HUVEC cells (human) (UniProt P17931); assay: cell-based or functional assay
[11] = molecular target: prostate cancer patient serum-associated gal3 (human) (UniProt P17931); assay: cell-based or functional assay
Chain of prostate cancer patient serum-associated gal3 (human) (P17931 2-250 limits assumed): as the sequence (P17931 2-250) above

[12] = molecular target: purified recombinant galectin-3 (gal3) (UniProt P17931); assay: cell-based or functional assay
[13] = molecular target: gal3 on the surface of B16 melanoma cells (murine) (UniProt P16110); assay: cell-based or functional assay
[14] = molecular target: purified recombinant galectin-3 (gal3) (UniProt P17931); assay: solid phase assay, inhibition of gal3 binding to asialofetuin, molar basis
[15] = molecular target: purified recombinant galectin-3 (gal3) (UniProt P17931); assay: SPR (Biacore T200), biotinylated gal3 captured on SA chip, 1:1 binding model
gal4 [16] = assay: solid phase assay, inhibition of gal4 binding to asialofetuin
gal4 [17] = assay: solid phase assay, inhibition of gal4 binding to plate-bound asialofetuin (competitor), anti-galectin antibody detection

Chain of purified recombinant galectin-3 (gal3) (P17931 whole entry, the tested form may be a part): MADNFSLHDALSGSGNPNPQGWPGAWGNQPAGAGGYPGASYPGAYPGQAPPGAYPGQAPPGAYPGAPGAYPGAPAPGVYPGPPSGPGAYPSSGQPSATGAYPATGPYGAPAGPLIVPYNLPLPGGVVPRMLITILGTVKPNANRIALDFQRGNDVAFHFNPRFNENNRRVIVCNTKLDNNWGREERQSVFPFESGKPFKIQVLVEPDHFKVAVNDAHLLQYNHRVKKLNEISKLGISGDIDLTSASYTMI
Chain of gal3 on the surface of B16 melanoma cells (murine) (P16110 2-264): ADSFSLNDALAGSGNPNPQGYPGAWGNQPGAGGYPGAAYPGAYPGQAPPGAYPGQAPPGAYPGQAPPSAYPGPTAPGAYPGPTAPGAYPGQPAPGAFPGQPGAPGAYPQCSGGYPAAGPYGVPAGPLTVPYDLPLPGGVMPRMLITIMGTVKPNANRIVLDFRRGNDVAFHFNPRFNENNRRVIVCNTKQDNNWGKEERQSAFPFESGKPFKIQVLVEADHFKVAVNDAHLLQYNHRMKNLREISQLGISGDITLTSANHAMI

IC50 [1]: 82 µg/mL | RIA (relative inhibitory activity compared to lactose taken as 1) (relative to lactose = 1) [1]: 0.33
Substance: Fraction 3 (<30 kDa, >10 kDa) of cod anti-freeze glycoproteins

% inhibition at 6.2 nM [1]: 45%
Substance: O-glycosidase treated TFD100

RIA (relative inhibitory activity compared to lactose taken as 1) (relative to lactose = 1) [1]: < 0.06
Substance: Fraction 5 (<3 kDa) of cod anti-freeze glycoproteins

Second part, the substance before the results:

Substance: Crude extract (crude anti-freeze glycoproteins of cod, A/F Protein)
IC50 [1]: 108 µg/mL | RIA (relative inhibitory activity compared to lactose taken as 1) (relative to lactose = 1) [1]: 0.25

Substance: pre-immune IgG (protein A-Sepharose purified pre-immune rabbit serum) (antibody)
mean fluorescence unit (mfu) [2]: 1000 mfu | mean fluorescence unit (mfu) [3]: 95 mfu | mean fluorescence unit (mfu) [4]: 759 mfu

Substance: TFD100 (Thomsen-Friedenreich disaccharide-containing glycopeptide of approximately 100 kDa purified from Pacific cod, Gadus macrocephalus)
RIA (relative inhibitory activity compared to lactose taken as 1) (fold vs lactose) [1]: 400000 | IC50 [5]: 1.5 nM | IC50 [6]: 0.25 nM | RIA (relative inhibitory activity compared to lactose taken as 1) (fold vs lactose) [7]: 66700 | half-life for the complex [8]: 38.5 min | Kd [9]: 0.0968 nM | inhibition of binding of calcein-labeled PC3 cells to HUVEC monolayer (PC3 pre-treated with 3.5 nM TFD100) [10]: 33% | inhibition of tumor-endothelial cell interactions (HUVEC monolayer pre-incubated with 3.5 nM TFD100) [10]: 45% | apoptosis of activated tumor-specific CD8+ cells with patient serum plus 3.5 nM TFD100 (87-93% with patient serum alone) [11]: 66 % apoptosis | apoptosis of activated pmel CD8+ T cells with 5 µM recombinant gal3 plus 3.5 nM TFD100 (˜76% with gal3 alone, ˜61% CD8 alone) [12]: 72 % apoptosis | inhibition of gal3 (5 µM)-induced apoptosis of MOLT-4 cells by 3.5 nM TFD100 (annexin V binding) [12]: 34% | inhibition of gal3 (5 µM)-induced apoptosis of human CD8+ T cells by 3.5 nM TFD100 [12]: 77% | inhibition of gal3 (5 µM)-mediated apoptosis of Jurkat cells by 3.5 nM TFD100 [12]: 63% | apoptosis of activated tumor specific CD8+ T cells on a B16 monolayer with 3.5 nM TFD100 (about 53% without) [13]: 36 % apoptosis | fold activity in inhibiting gal3 binding compared to free TFD [14]: 800000 fold | koff [15]: 0.0003 s⁻¹ | kon [15]: 3.1e+06 M⁻¹ s⁻¹ | RIA (relative inhibitory activity compared to lactose taken as 1) (fold vs lactose) (gal4 [16]): 8.33e+06 | IC50 (gal4 [17]): 1.2 nM

Substance: Fraction 4 (<10 kDa, >3 kDa) of cod anti-freeze glycoproteins
IC50 [1]: 300 µg/mL | RIA (relative inhibitory activity compared to lactose taken as 1) (relative to lactose = 1) [1]: 0.09

Substance: Fraction 1 (>50 kDa) of cod anti-freeze glycoproteins
IC50 [1]: 2.5 µg/mL | RIA (relative inhibitory activity compared to lactose taken as 1) (relative to lactose = 1) [1]: 10.5

Substance: Fraction 2 (<50 kDa, >30 kDa) of cod anti-freeze glycoproteins
IC50 [1]: 27 µg/mL | RIA (relative inhibitory activity compared to lactose taken as 1) (relative to lactose = 1) [1]: 1

Source: US20120251580A1
